Test results taken from article PMC3063151 (The Journal of neuroscience : the official journal of the …, 2011).

B1: GluN1-NTD (crystallised; from GluN1-NTD-8His) (domain or fragment)
chain: not shown
modifications: N-linked N-acetyl glucosamine at N61, N203, N239, N276 and N300 (EndoH treated)
B2: GluN1-NTD-Y109C, purified (gel filtration and negative stain EM) (domain or fragment)
chain: not shown

Tests used:
[1] = target: the molecule itself; assay: crystal structure
[2] = target: the molecule itself; assay: SEC

Protein	binding result [1]	stoichiometry N [2]
B1	binds	–
B2	–	2
